From patent US20250326840A1 (QURE BIOTECHNOLOGY SHANGHAI, published 2025)

T1: SIRPα V4 fusion Fc (mouse IgG2a) (human, limits assumed)
T1 chain: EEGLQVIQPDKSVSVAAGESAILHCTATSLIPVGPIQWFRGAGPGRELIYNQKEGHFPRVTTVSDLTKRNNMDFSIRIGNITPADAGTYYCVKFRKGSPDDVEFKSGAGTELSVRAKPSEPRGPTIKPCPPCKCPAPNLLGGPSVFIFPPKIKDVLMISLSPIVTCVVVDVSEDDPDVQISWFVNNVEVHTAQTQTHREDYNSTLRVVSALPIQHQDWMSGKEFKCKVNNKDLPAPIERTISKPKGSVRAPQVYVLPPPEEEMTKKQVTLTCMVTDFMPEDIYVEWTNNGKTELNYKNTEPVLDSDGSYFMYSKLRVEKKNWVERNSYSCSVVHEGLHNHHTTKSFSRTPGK

T2: SIRPα V6 fusion Fc (mouse IgG2a) (human, limits assumed)
T2 chain: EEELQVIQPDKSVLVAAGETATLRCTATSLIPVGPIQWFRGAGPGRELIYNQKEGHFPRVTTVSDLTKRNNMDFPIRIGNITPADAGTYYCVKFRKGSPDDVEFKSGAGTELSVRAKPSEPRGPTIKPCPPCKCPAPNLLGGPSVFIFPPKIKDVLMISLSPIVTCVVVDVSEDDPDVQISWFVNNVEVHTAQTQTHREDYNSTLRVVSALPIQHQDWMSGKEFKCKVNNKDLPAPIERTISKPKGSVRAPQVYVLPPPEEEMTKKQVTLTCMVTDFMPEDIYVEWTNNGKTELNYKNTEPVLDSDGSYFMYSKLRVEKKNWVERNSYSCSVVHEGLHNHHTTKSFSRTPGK

T3: SIRPα V1 fusion Fc (mouse IgG2a) (human, limits assumed)
T3 chain: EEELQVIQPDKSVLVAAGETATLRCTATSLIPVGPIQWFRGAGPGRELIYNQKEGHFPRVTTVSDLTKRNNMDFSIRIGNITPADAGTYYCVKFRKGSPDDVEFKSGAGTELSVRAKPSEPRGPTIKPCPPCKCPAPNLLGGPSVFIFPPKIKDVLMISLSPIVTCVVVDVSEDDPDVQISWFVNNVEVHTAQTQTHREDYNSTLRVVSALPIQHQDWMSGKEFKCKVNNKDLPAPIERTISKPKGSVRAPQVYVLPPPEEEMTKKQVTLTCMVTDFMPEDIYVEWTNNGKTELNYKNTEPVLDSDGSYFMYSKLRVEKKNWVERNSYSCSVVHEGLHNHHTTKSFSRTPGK

T4: QP093 (human SIRPα V1 ECD(E31-R370)-mFC(IgG2a)) (human)
T4 construct: also called Human SIRPα V1 recombinant protein (QP093)
T4 chain: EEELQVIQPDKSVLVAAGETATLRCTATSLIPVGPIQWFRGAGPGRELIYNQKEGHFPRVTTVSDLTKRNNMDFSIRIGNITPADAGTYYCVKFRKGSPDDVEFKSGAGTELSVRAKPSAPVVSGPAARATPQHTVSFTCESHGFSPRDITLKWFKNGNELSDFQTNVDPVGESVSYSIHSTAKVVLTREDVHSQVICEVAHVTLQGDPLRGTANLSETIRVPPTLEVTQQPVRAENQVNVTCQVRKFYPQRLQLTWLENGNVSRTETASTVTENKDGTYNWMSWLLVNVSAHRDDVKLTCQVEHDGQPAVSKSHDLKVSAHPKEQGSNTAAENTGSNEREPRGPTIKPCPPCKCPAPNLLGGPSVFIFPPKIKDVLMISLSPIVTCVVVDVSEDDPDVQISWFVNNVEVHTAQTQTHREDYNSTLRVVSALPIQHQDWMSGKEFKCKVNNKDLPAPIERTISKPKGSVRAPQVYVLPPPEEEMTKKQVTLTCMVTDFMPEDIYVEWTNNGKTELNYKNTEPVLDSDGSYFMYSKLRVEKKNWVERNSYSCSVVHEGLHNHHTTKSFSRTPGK

T5: QP538 (SIRPαV9-mFC(mIgG2a)) (human, limits assumed)
T5 construct: also called human SIRPα V9 recombinant protein (QP538)
T5 chain: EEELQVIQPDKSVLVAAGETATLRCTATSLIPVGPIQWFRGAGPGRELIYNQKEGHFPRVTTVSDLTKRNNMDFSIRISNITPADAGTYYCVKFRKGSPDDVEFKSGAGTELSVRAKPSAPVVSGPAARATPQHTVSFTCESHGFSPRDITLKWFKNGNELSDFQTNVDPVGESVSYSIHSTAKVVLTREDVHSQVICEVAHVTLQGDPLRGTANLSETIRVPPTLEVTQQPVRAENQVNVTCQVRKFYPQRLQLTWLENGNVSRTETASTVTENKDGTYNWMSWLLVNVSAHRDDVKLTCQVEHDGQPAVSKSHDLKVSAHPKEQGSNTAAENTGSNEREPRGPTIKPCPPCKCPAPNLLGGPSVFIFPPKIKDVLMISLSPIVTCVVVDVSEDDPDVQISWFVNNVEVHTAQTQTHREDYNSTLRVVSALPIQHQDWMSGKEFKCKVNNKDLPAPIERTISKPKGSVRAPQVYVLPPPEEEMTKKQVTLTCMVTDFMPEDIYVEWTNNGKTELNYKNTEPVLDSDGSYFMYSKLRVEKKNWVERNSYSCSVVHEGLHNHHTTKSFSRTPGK


What was measured:
[1] = biological target: T1, SIRPα V4 fusion Fc (mouse IgG2a); assay: ELISA, SIRPα V4-mouse IgG2a Fc coated, anti-hFab detection; unit from the x axis Log(Conc.(nM))
[2] = biological target: T2, SIRPα V6 fusion Fc (mouse IgG2a); assay: ELISA, SIRPα V6-mouse IgG2a Fc coated, anti-hFab detection; unit from the x axis Log(Conc.(nM))
[3] = biological target: T3, SIRPα V1 fusion Fc (mouse IgG2a); assay: ELISA, SIRPα V1-mouse IgG2a Fc coated, anti-hFab detection; unit from the x axis Log(Conc.(nM))
[4] = biological target: T6, QP532 (SIRPαV3-mFC(mIgG2a)) (human); assay: ELISA, human SIRPα V3 recombinant protein (QP532) coated, HRP anti-human Fc detection
T6 construct: also called human SIRPα V3 recombinant protein (QP532)

[5] = biological target: T4, QP093 (human SIRPα V1 …); assay: ELISA, human SIRPα V1 recombinant protein (QP093) coated, HRP anti-human Fc detection
[6] = biological target: T7, human SIRPα V1 on U-937 cells (human, UniProt P78324 31-504); assay: FACS on U-937 cells
T7 construct: whole, on cells

[7] = biological target: T8, QP095 (human SIRPα V2 ECD(E31-R370)-mFC(IgG2a)) (human); assay: ELISA, human SIRPα V2 recombinant protein (QP095) coated, HRP anti-human Fc detection
T8 construct: also called human SIRPα V2 recombinant protein (QP095)

[8] = biological target: T5, QP538 (SIRPαV9-mFC(mIgG2a)); assay: ELISA, human SIRPα V9 recombinant protein (QP538) coated, HRP anti-human Fc detection

| Binder | EC50 [1] [nM] | EC50 [2] [nM] | EC50 [3] [nM] | EC50 [4] [nM] | EC50 [5] [nM] | EC50 [6] [nM] | EC50 [7] [nM] | EC50 [8] [nM] |
| --- | --- | --- | --- | --- | --- | --- | --- | --- |
| QP256279 (antibody, human IgG4, V domains shown, Human IgG4 heavy constant region and kappa CL) VH: QVQLVQSGAEVKKPGASVKVSCKASGYTFTNYWINWVRQAPGQGLEWIAMIDPSDSETHYNQIFKDRATLTTDTSTSTAYMELRSLRSDDTAVYYCAMDYGSLYAMDYWGRGTLVTVSS VL: DIVLTQSPDSLAVSLGERATINCRASQSVRSSGYNWIFWYQQKPGQPPKLLIYLASNRDSGVPDRFSGSGSGTDFTLTISSLQAEDVAVYYCQHSRELPTFGQGTKLEIK | 0.0574 | 0.053 | 0.0786 | – | – | – | – | – |
| QP37503751 (1H9 analog) (antibody, human IgG1, kappa, N297A, V domains shown, also called hz1H9 hIgG1(N297A)) VH: QVQLVQSGAEVKKPGASVKVSCKASGYTFTSYWITWVKQAPGQGLEWIGDIYPGSGSTNHIEKFKSKATLTVDTSISTAYMELSRLRSDDTAVYYCATGYGSSYGYFDYWGQGTLVTVSS VL: DIQMTQSPSSLSASVGDRVTITCRASENIYSYLAWYQQKPGKAPKLLIYTAKTLAEGVPSRFSGSGSGTDFTLTISSLQPEDFATYYCQHQYGPPFTFGQGTKLEIKR | – | – | – | 0.31 | 0.177 | 0.158 | 0.218 | 0.438 |
| QP32700279 (antibody, human IgG1, kappa, L234A L235A, V domains shown, also called SIRPα monoclonal antibody CHO71) VH: QVQLVQSGAEVKKPGASVKVSCKASGYTFTNYWINWVRQAPGQGLEWIAMIDPSDSETHYNQIFKDRATLTTDTSTSTAYMELRSLRSDDTAVYYCAMDYGSLYAMDYWGRGTLVTVSS VL: DIVLTQSPDSLAVSLGERATINCRASQSVRSSGYNWIFWYQQKPGQPPKLLIYLASNRDSGVPDRFSGSGSGTDFTLTISSLQAEDVAVYYCQHSRELPTFGQGTKLEIKR | – | – | – | 0.144 | 0.161 | 0.076 | 0.186 | 0.361 |
| QP026249 (KWAR23 analog) (antibody, human IgG4 S228P, kappa, also called KAWA23 analog; control antibody KWAR23 (QP026249), human IgG4) heavy: not shown light: QIVLTQSPAIMSASPGEKVTLTCSASSSVSSSYLYWYQQKPGSSPKLWIYSTSNLASGVPARFSGSGSGTSYSLTISSMEAEDAASYFCHQWSSYPRTFGAGTKLELKRTVAAPSVFIFPPSDEQLKSGTASVVCLLNNFYPREAKVQWKVDNALQSGNSQESVTEQDSKDSTYSLSSTLTLSKADYEKHKVYACEVTHQGLSSPVTKSFNRGEC | 0.115 | 0.119 | 0.16 | 0.433 | 0.442 | 0.21 | 0.467 | 0.804 |
| QP250251 (18D5 analog) (antibody, human IgG4 S228P, kappa, V domains shown, also called SIRPα antibody 18D5 from OSE) VH: QVQLQQPGAELVRPGSSVKLSCKASGYTFTSYWVHWVKQRPIQGLEWIGNIDPSDSDTHYNQKFKDKASLTVDKSSSTAYMQLSSLTFEDSAVYYCVRGGTGTMAWFAYWGQGTLVTVSA VL: DVVMTQTPLSLPVSLGDQASISCRSSQSLVHSYGNTYLYWYLQKPGQSPKLLIYRVSNRFSGVPDRFSGSGSGTDFTLKISRVEAEDLGVYFCFQGTHVPYTFGSGTKLEIKR | 0.125 | 0.114 | 0.154 | – | 0.438 | 0.581 | – | 0.854 |
